This assay addresses T1, His-tagged canine IL-31 (interleukin 31) recombinant protein (canine).
T1 construct: Expressed in HEK293 cells, purified on a Ni column; unlabelled analyte in BLI; also called canine IL-31 recombinant protein; biotin-labeled canine IL-31 recombinant protein
Description: BLI (Gator), biotinylated antibody on streptavidin probe, canine IL-31 as analyte.

One may read the Kd as the concentration at which binding is half-saturated. In general, koff refers to the rate constant with which the complex falls apart. Broadly, the kon is a measure of how fast the partners come together.

B1: Lokivetmab (antibody, V domains shown)
VH: EVQLVESGGDLVKPGGSLRLSCVASGFTFSNYGMSWVRQAPGKGLQWVATISYGGSYTYYPDNIKGRFTISRDNAKNTLYLQMNSLRAEDTAMYYCVRGYGYDTMDYWGQGTLVTVSS
VL: EIVMTQSPASLSLSQEEKVTITCKASQSVSFAGTGLMHWYQQKPGQAPKLLIYRASNLEAGVPSRFSGSGSGTDFSFTISSLEPEDVAVYYCQQSREYPWTFGQGTKLEIKR
With B1, the dissociation constant Kd was 19.3 nM, the koff was 0.00203 s⁻¹ and the kon came to 105000 M⁻¹ s⁻¹.

Values taken from EP4745156A1 (Beijing Vjtbio Co., Ltd., dated 2026).
